assay: soluble on expression in E. coli; label from the status in PepcDB or PDB records

Sequence | soluble on expression in E. coli
SVICCAAVNCSNRQGKGEKRAVSFHRFPLKDSKRLIQWLKAVQRDNWTPTKYSFLCSEHFTKDSFSKRLEDQHRLLKPTAVPSIFHLTEKKRGAGGHGRTRRKDASKATGGVRGHSSAATGRGAAGWSPSSSGNPMAKPESRRLKQAALQGEATPRAAQEAASQEQAQQALERTPGDGLATMVAGSQGKAEASATDAGDESATSSIEGGVTDKSGISMDDFTPPGSGACKFIGSLHSYSFSSKHTRERPSVPREPIDRKRLKKDVEPSCSGSSLGPDKGLAQSPPSSSLTATPQKPSQSPSAPPADVTPKPATEAVQSEHSDASPMSINEVILSASGACKLIDSLHSYCFSSRQNKSQVCCLREQVEKKNGELKSLRQRVSRSDSQVRKLQEKLDELRRVSVPYPSSLLSPSREPPKMNPVVEPLSWMLGTWLSDPPGAGTYPTLQPFQYLEEVHISHVGQPMLNFSFNSFHPDTRKPMHRECGFIRLKPDTNKVAFVSAQNTGVVEVEEGEVNGQELCIASHSIARISFAKEPHVEQITRKFRLNSEGKLEQTVSMATTTQPMTQHLHVTYKKVTP | soluble
SLYQVVLGKVSTLSAGQLPDALIAQAPQGVRRASWLAGRVLLSRALSPLPEMVYGEQGKPAFSAGAPLWFNLSHSGDTIALLLSDEGEVGCDIEVIRPRDNWRSLANAVFSLGEHAEMEAERPEQQLAAFWRIWTRKEAIVKQRGGSAWQIVSVDSTLPSALSVSQCQLDTLSLAVCTPTPFTLTPQTITKAL | not soluble
AIASSAPAPGPAPASLTLWDEEDFQGRRCRLLSDCANVCERGGLPRVRSVKVENGVWVAFEYPDFQGQQFILEKGDYPRWSAWSGSSSHNSNQLLSFRPVLCANHNDSRVTLFEGDNFQGCKFDLVDDYPSLPSMGWASKDVGSLKVSSGAWVAYQYPGYRGYQYVLERDRHSGEFCTYGELGTQAHTGQLQSIRRVQH | soluble
MTNDTNITNDKDINANIAHDDHFNDSIVNEVILEDMKKNRIDHMKYLPDMEVLDSDIMDRVVAEMDAYDYDQYTAADVRAALSHEYRTLEDFKALLSPAAQPFIEEIAQAAQLETRKHFGNSVCMFTPLYISNYCENYCIYCGFNCHNKINRAKLNASEIEKEMAAIAKTGLQEILILTGESKKMSDVEYIGEACKIARKYFKVIGLEVYPMNSDEYAYLHECGADYVTVFQETYNSDKYETLHLAGHKRIFPYRVNAQERALKGGMRGVGFAALLGLDDFRKDALATGYHAYLLQKKYPRAEIAFSCPRLCPIINNDRINPKDVHETQLLQVVCAYRLFMPFASITISTREVARVRDNLVNIAATKISAGVSTGIGSHVDDIEDKGDDQFEISDGRSVDEVFNALLDNGLQPVMSDYIYV | not soluble
MSLTDLFAREPYAPLAERLRPHTLDDVVGQEHLIGEGKPLRVAVEGGKPHSMLLWGPPGVGKTTLARILAQSFNAQFLPVSAVFSGVKDIREAIDKAEIALQQGRATILFVDEVHRFNKAQQDAFLPHVESGLLTFIGATTENPSFEVNPALLSRAQVYVLQPLSSDDLKKLIAKVLALPEYQEFTIETDAQKLLVNTVDGDARRLLNLLEQLLRAADTRRLKNLTAEFLADSLGAQIRRFDKGGESFYNQISALHKSVRGSHPNAALYWFCRMLDGGTDPRYLARRIVRIAWEDIGLADPRALQIANDAAATFERLGSPEGELALAQAVLYLAAAAKSNAGYKAYNQMRHFVKENASDEVPVHLRNAPTKLMKELGYGREYRYAHDEPNAYAAGESYMPDGLDEPDFYQPVPRGLEIKIGEKLAWLKSLDEEVLKAEGHHHHHH | soluble
MSHELVELLRSVLKEELQPIHERLDRLEAGQQRLEERQQRLEERQQRLEERQQRLEEQQQRLGEKLDHFIIETRSHFKKIEDKLAGHRRMFDILPHDWRDTTMAIEYLKHKISQHDLEIYQLKKRLELQETK | not soluble
MAAASISAIGCNQTLIGTSFYGGWGSSISGEDYQTMLSKTVAPPQQARVSRKAIRAVPMMKNVNEGKGLFAPLVVVTRNLVGKKRFNQLRGKAIALHSQVITEFCKSIGADAKQRQGLIRLAKKNGERLGFLA | not soluble
MGTYVEPSKLSYGEYLESWFNTKRHSVGIQTAKVLKGYLNSRIIPSLGNIKLAKLTSLHMQNYVNSLRDEGLKRGTIEKIIKVIRNSLEHAIDLELITKNVAAKTKLPKADKEELEHHHHHH | not soluble
GSHMASDLKNPYERIQAEAYDAMSGIQTEGTDDDGGGDNIGWINDGDWVKYERVHFERDASSIEVRVASDTPGGRIEIRTGSPTGTLLGDVQVPNTGGWQQWQTVTGNVQIQPGTYDVYLVFKGSPEYDLMNVNWFVFRANG | soluble
MGSDKIHHHHHHPEIIVPKPHQLKWHEAEMGAVFHYDLHVFDGIRYGQGNNRISPIEDYNIFNPTQLDTDQWIQAAKAAGCKFAVLTATHETGFGLWQSDVNPYCLKAVKWRDGKGDIVRDFVNSCRKYGIQPGIYVGIRWNSLLGIHNFKVAGDGEFAANRQAWYKRFCEKMVEELCTRYGDLYMIWFDGGADDPRGDGPDVEPIVNKYQPDCLFYHNIDRADFRWGGSETGTVGYPCWSTFPAPCSHHKRIESQKDQIALLKQGDPEGKYWVPAMADSPLRGANGRHEWFWEPDDENNIYPLTTLMDMYEKSVGRNATLIIGLTPDPDGLLPAGDEQRLKEWGEEINRRFGTPLAETQGRKQRLTLNLNEKQPVNYCIIQEDIAKGERIRQYKIEAKVNGKWQTVCSGESVGHKRIAHFEPVETTALRLTVTQSVAVPEIRHFSAYNVTLK | not soluble
MASYDKISDGWYRVCPKRSSNRALITVKLPFSTLFRLKPMTDITPFANRLGKNIKHLMKWAKRNGIEAWRIYDRDIPQFPFAADVYGDRIHLQEYDTGWLMRPEEYEAWLAEVLEAVAFVTGFAPEQIRLKRRERQKGLQQYEKTGKAGDDFVITENGRKFWVNLDKYLDTGLFLDHRNTRKKVGETAAGKRFLNLFSYTGSFTVYAATGGAASSETVDLSNTYLDWAKRNFELNGIDTERHKIVRADVFQYLQTAYGEGRRFDLIVMDPPSFSNSKKMSDILDIQRDHKKLIDGAVKLLASDGILYFSNNLRSFVLDDLVSEQYAVKDISKQSVPEDFRNKKIHRCWEIRHKS | not soluble
MSVGKPLPHDSARAHVTGQARYLDDLPCPANTLHLAFGLSTEASAAITGLDLEPVRESPGVIAVFTAADLPHDNDASPAPSPEPVLATGEVHFVGQPIFLVAATSHRAARIAARKARITYAPRPAILTLDQALAADSRFEGGPVIWARGDVETALAGAAHLAEGCFEIGGQEHFYLEGQAALALPAEGGVVIHCSSQHPSEIQHKVAHALGLAFHDVRVEMRRMGGGFGGKESQGNHLAIACAVAARATGRPCKMRYDRDDDMVITGKRHDFRIRYRIGADASGKLLGADFVHLARCGWSADLSLPVCDRAMLHADGSYFVPALRIESHRLRTNTQSNTAFRGFGGPQGALGMERAIEHLARGMGRDPAELRALNFYDPPERGGLSAPPSPPEPIATKKTQTTHYGQEVADCVLGELVTRLQKSANFTTRRAEIAAWNSTNRTLARGIALSPVKFGISFTLTHLNQAGALVQIYTDGSVALNHGGTEMGQGLHAKMVQVAAAVLGIDPVQVRITATDTSKVPNTSATAASSGADMNGMAVKDACETLRGRLAGFVAAREGCAARDVIFDAGQVQASGKSWRFAEIVAAAYMARISLSATGFYATPKLSWDRLRGQGRPFLYFAYGAAITEVVIDRLTGENRILRTDILHDAGASLNPALDIGQIEGAYVQGAGWLTTEELVWDHCGRLMTHAPSTYKIPAFSDRPRIFNVALWDQPNREETIFRSKAVGEPPFLLGISAFLALHDACAACGPHWPDLQAPATPEAVLAAVRRAEGRA | soluble
MSLERAVPLAVPLGQTEVFQALQRLHMTIFSQSVSPCGKFLAAGNNYGQIAIFSLSSALSSEAKEESKKPVVTFQAHDGPVYSMVSTDRHLLSAGDGEVKAWLWAEMLKKGCKELWRRQPPYRTSLEVPEINALLLVPKENSLILAGGDCQLHTMDLETGTFTRVLRGHTDYIHCLALRERSPEVLSGGEDGAVRLWDLRTAKEVQTIEVYKHEECSRPHNGRWIGCLATDSDWMVCGGGPALTLWHLRSSTPTTIFPIRAPQKHVTFYQDLILSAGQGRCVNQWQLSGELKAQVPGSSPGLLSLSLNQQPAAPECKVLTAAGNSCRVDVFTNLGYRAFSLSEGHHHHHH | not soluble
MAVAGAVSGEPLVHWCTQQLRKTFGLDVSEEIIQYVLSIESAEEIREYVTDLLQGNEGKKGQFIEELITKWQKNDQELISDPLQQCFKKDEILDGQKSGDHLKRGRKKGRNRQEVPAFTEPDTTAEVKTPFDLAKAQENSNSVKKKTKFVNLYTREGQDRLAVLLPGRHPCDCLGQKHKLINNCLICGRIVCEQEGSGPCLFCGTLVCTHEEQDILQRDSNKSQKLLKKLMSGVENSGKVDISTKDLLPHQELRIKSGLEKAIKHKDKLLEFDRTSIRRTQVIDDESDYFASDSNQWLSKLERETLQKREEELRELRHASRLSKKVTIDFAGRKILEEENSLAEYHSRLDETIQAIANGTLNQPLTKLDRSSEEPLGVLVNPNMYQSPPQWVDHTGAASQKKAFRSSGFGLEFNSFQHQLRIQDQEFQEGFDGGWCLSVHQPWASLLVRGIKRVEGRSWYTPHRGRLWIAATAKKPSPQEVSELQATYRLLRGKDVEFPNDYPSGCLLGCVDLIDCLSQKQFKEQFPDISQESDSPFVFICKNPQEMVVKFPIKGNPKIWKLDSKIHQGAKKGLMKQNKAV | soluble
MGTASYPDPEIRALAEKITANATSDLEKVKAIESYLKNNYINTYVERTDVKEFLFKTKRGTAREFATAFVLLAQSIGIPARAVFGYLADPVETNQTIFASDAYVWAEVRFKEGWMEFDPAPEGRG | soluble
GPGSMGQVGGTATSGRGLTALQVAAALRVTAAARLKQAEAAVSSSQAMHSAHCSIAEQSKAIKPEDCSAVQRLTVPSTDHKGKHVEVRVTEYAPDVFSFLRQLKGVTDPQFADEWSLPENRLKMEMGEGRSQALFLKSKTMLLMCKTISVEEVHALLHVLRAYTLHITAHPSSLLMRFYMLLKVSVRSEEGYILCFNDVFGTASVLHEKWDIKGRVPKNGKHLHYPHLIGSGYEPDPHATKPPPKRHVLANPAIDASQQHPGRESAVVVRGTKDAQGLPTLHDKDLTRLFWVPRTARKRLVEELLRDYDFLKNAGMMDYSLLIGVAYQDDKTRPSDKHCGIESTNVTSSSAVAPASTSAEARPASLAQDSHPSGTRTMLTTVPEFANGVRSFDGQEMYYIGVIDVLTTYTLKKKSANFFKSLLWKQKTLSTIPPDRYAQRIASFTELIFPDVKEEANGG | not soluble
MYPKQFLKFGETSLFQETVLRCLEVSDISEVFVVTNEAQKFFVIGQIKEAGYSIPPENILIEPEGKNTLPAIFFGMKEIEKKFGDSIVGVFSSDHVLDRAAMATISSAENLASDYLVTFGVVPTFPHTGYGYIKASEACSPGYRVSEFREKPDFETAKKYIEEGCLWNSGMFLFETRLFFEEARKHAPSVYGCFEKEGDINQIYECVDNISIDYGIMEKSDKVAVVRLDHKWSDLGNFAAIYDELEKDSVGNVIHDCDPMLLNSDGNLVYSRCGKIVSLIDVKDMVVVDTSDALLICPKSSSQKVKEIVSELKGRKDERAFIGQTVYRPWGSYTLLDASPGHKIKNITVLSDHKLSLQLHYHRSEHWVVVKGMACVEVDGKQFFLGPGESTFIRAGQKHRLSNPGKLPLEIIEVQLGELVDEEDIVRFDDVYGRRLEHHHHHH | soluble
LSPPRGLVAVRTPRGVLLHWDPPELVPKRLDGYVLEGRQGSQGWEVLDPAVAGTETELLVPGLIKDVLYEFRLVAFAGSFVSDPSNTANVSTSGL | soluble
MIWIINISWMHSIFDFISMLINRNHFSKWSISNGRHVSFCNWVFTYTNICSKSFNYRRRSCFKNISISYPFCRIHSIFNKFFTYFIISNCSCPTHRLFCIWRSLFTRSLEHHHHHH | not soluble

Reference: the DeepSol protein solubility set
